18 molecules from patent US20220185898A1 (Alector, published 2022) can be followed below.

The target of test [1] is T1, biotinylated mouse Sortilin monomer (mouse, UniProt Q6PHU5 74-754, limits assumed, biotinylated).
T1 construct: also called Bt-msSort
Kind of test: MSD-SET, Fab.
Method: Antibodies (20 nM in PBS) were coated onto standard bind MSD-ECL plates overnight at 4° C. or at room temperature for 30 min. Plates were then blocked with 1% BSA for 30 min with shaking at 700 rpm, followed by three washes with wash buffer (PB SF+0.05% Tween 20). SET samples were applied and incubated on the plates for 150 s with shaking at 700 rpm followed by one wash. Antigen captured on a plate was detected with 250 ng/ml sulfotag-labeled streptavidin in PBSF by incubation on the plate for 3 min. The plates were washed three times with wash buffer and then read on the MSD Sector Imager 2400 instrument using 1× Read Buffer T with surfactant. The percent free antigen was plotted as a function of titrated antibody in Prism and fit to a quadratic equation to extract the KD. To improve throughput, liquid handling robots were used throughout MSD-SET experiments, including SET sample preparation.

In test [2] the target is T2, mouse Sortilin expressed on 293 / HEK293T cells (mouse, UniProt Q6PHU5 74-825).
T2 construct: full-length recombinant mouse Sortilin; also called mSort; msSort
Kind of test: FACS, HEK293T + msSort.
Method: (§1) Antibodies were diluted in FACS buffer (PBS+2% FBS+0.01% NaAzide). After incubation on ice for 1 h, cells were washed three times in FACS buffer and incubated with anti-human PE conjugated secondary antibody (BD Biosciences, 1:100 dilution) for 30 min on ice. Then cells were washed twice in 200 ul FACS buffer, and subsequently analyzed on a FACS Canto or iQE FACS screening instrument (Intellicyt Corp).

Test [3] has as its target T3, human Sortilin expressed on 293 / HEK293T cells (human, UniProt Q99523 78-830).
T3 construct: full-length recombinant human Sortilin; also called hSort; SORT1
As to the kind of experiment: FACS, 293 cells.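 Note: antibodies at 10 µg/ml bound to cells for 1 h on ice, detected with PE-labelled anti-human secondary antibody by flow cytometry, reported as mean fluorescence intensity.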
Method: (§2) Cells were harvested, plated at 10⁵/ml in a 96 well plate, washed, and incubated in 100 μl PBS containing 10 μg/ml Mab and 2% FBS for 1 hour in ice. Cells were then washed twice and incubated in 100 μl PBS+2% FBS containing 5 μg/ml PE-conjugated anti-human secondary antibody for 30 minutes in ice. Cells were washed twice in cold PBS and data was acquired on a BD FACS Canto. Data analysis and calculation of MFI values was performed with FlowJo (TreeStar) software version 10.0.7.

Test [4] concerns the target T2, mouse Sortilin expressed on 293 / …. As to the kind of experiment: FACS, 293 cells.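 Note: antibodies at 10 µg/ml bound to cells for 1 h on ice, detected with PE-labelled anti-human secondary antibody by flow cytometry, reported as mean fluorescence intensity.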
Method: as §2
In test [5] the target is T4, mouse Sortilin Fc fusion protein (mouse; human, UniProt Q6PHU5 74-754).
T4 construct: whole entry named; also called mSort-Fc
As to the kind of experiment: ForteBio, avid.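 Note: whole IgG captured on AHQ sensors, then contacted with Sortilin Fc fusion antigen at 100 nM, followed by an off-rate phase in buffer.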
Method: (§3) The affinity for the Sortilin antibodies was determined by measuring their KD by ForteBio. […] Briefly, ForteBio affinity measurements were performed by loading IgGs on-line onto AHQ sensors. Sensors were equilibrated off-line in assay buffer for 30 min and then monitored on-line for 60 seconds for baseline establishment. For avid binding measurement, sensors with loaded IgGs were exposed to 100 nM antigen (human or mouse Sortilin Fc fusion) for 3, afterwards they were transferred to assay buffer for 3 min for off-rate measurement.
(§4) The binding affinity of each anti-Sortilin antibody was determined by measuring their KD by ForteBio or MSD-SET at room temperature. […] Briefly, ForteBio affinity measurements were performed by loading IgGs on-line onto AHQ sensors. Sensors were equilibrated off-line in assay buffer for 30 min and then monitored on-line for 60 seconds for baseline establishment. Sensors with loaded IgGs were exposed to 100 nM antigen for 5 minutes, then transferred to assay buffer for 5 min for off-rate measurement. Kinetics were analyzed using the 1:1 binding model.

For test [6], the target named is T5, human Sortilin Fc fusion protein (human, UniProt Q99523 78-755).
T5 construct: whole entry named; also called hSort-Fc
As to the kind of experiment: ForteBio, avid.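 Note: whole IgG captured on AHQ sensors, then contacted with Sortilin Fc fusion antigen at 100 nM, followed by an off-rate phase in buffer.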
Method: as §3, §4

Test [7] has as its target T3, human Sortilin expressed on 293 / …. As to the kind of experiment: FACS, HEK293T + hSort.
Method: as §1
Test [8] deals with T1, biotinylated mouse Sortilin monomer. Kind of test: ForteBio, Fab.
Method: The affinity of the anti-Sortilin antibodies was determined by measuring their KD by ForteBio and MSD. […] Briefly, ForteBio affinity measurements were performed by loading immunoglobulins (IgGs) on-line onto AHQ sensors. Sensors were equilibrated off-line in assay buffer for 30 min and then monitored on-line for 60 seconds for baseline establishment. For avid binding measurement, sensors with loaded IgGs were exposed to 100 nM antigen (human or mouse Sortilin Fc fusion) for 3 min, afterwards they were transferred to assay buffer for 3 min for off-rate measurement. […] Monovalent binding measurements were obtained by loading human or mouse Sortilin Fc fusion antigens to AHQ sensor and followed by exposure to −100 nM Sortilin antibody Fab. […] Kinetics data were fit using a 1:1 binding model in the data analysis software provided by ForteBio.

B1: S-82-3 Fab (Fab, V domains shown)
VH: QLQLQESGPGLVKPSETLSLTCTVSGGSISSSDYYWGWIRQPPGKGLEWIGQIYYKGSTYYNPSLKSRVTISVDTSKNQFSLKLSSVTAADTAVYYCARGVGSGYSYGYRYFDYWGQGTLVTVSS
VL: EIVLTQSPGTLSLSPGERATLSCRASQSVSSSYLAWYQQKPGQAPRLLIYGASSRATGIPDRFSGSGSGTDFTLTISRLEPEDFAVYYCQQSHVSPWTFGGGTKVEIK
notes: Fab by papain digestion
Regarding B1, in test [1], the binding result was “no binding”.

B2: S-82-5 Fab (Fab, V domains shown)
VH: QLQLQESGPGLVKPSETLSLTCTVSGGSIKSSEYYWGWIRQPPGKGLEWIGSIYRAGSTYYNPSLKSRVTISVDTSKNQFSLKLSSVTAADTAVYYCARGVGSGYSYGYRYFDYWGQGTLVTVSS
VL: EIVLTQSPGTLSLSPGERATLSCRASQSVSSSYLAWYQQKPGQAPRLLIYGASSRATGIPDRFSGSGSGTDFTLTISRLEPEDFAVYYCQQSHVSPWTFGGGTKVEIK
notes: Fab by papain digestion
Regarding B2, the binding result in test [1] is reported as “no binding”.

B3: S-82-5 (antibody, V domains shown)
VH: QLQLQESGPGLVKPSETLSLTCTVSGGSIKSSEYYWGWIRQPPGKGLEWIGSIYRAGSTYYNPSLKSRVTISVDTSKNQFSLKLSSVTAADTAVYYCARGVGSGYSYGYRYFDYWGQGTLVTVSS
VL: EIVLTQSPGTLSLSPGERATLSCRASQSVSSSYLAWYQQKPGQAPRLLIYGASSRATGIPDRFSGSGSGTDFTLTISRLEPEDFAVYYCQQSHVSPWTFGGGTKVEIK
notes: IgG
As for B3, in test [2], the binding result is recorded as “no binding (tested: 0.39-50 nM antibody)”.

B4: S-82-3 (antibody, V domains shown)
VH: QLQLQESGPGLVKPSETLSLTCTVSGGSISSSDYYWGWIRQPPGKGLEWIGQIYYKGSTYYNPSLKSRVTISVDTSKNQFSLKLSSVTAADTAVYYCARGVGSGYSYGYRYFDYWGQGTLVTVSS
VL: EIVLTQSPGTLSLSPGERATLSCRASQSVSSSYLAWYQQKPGQAPRLLIYGASSRATGIPDRFSGSGSGTDFTLTISRLEPEDFAVYYCQQSHVSPWTFGGGTKVEIK
notes: IgG
As for B4, in test [2], the binding result was “no binding (tested: 0.39-50 nM antibody)”.

B5: S-10 (antibody, V domains shown)
VH: QVQLVQSGAEVKKPGASVKVSCKASGYTFTSYGISWVRQAPGQGLEWMGWISAYNGNTNYAQKLQGRVTMTTDTSTSTAYMELRSLRSDDTAVYYCARDPGGYGPTLYYYYGMDVWGQGTTVTVSS
VL: EIVMTQSPATLSVSPGERATLSCRASQSVSSNLAWYQQKPGQAPRLLIYGASTRATGIPARFSGSGSGTEFTLTISSLQSEDFAVYYCQQYADWPPITFGGGTKVEIK
notes: IgG
As to B5, the MFI in test [3] came out at 8660; in test [4], 19400. For the same molecule, the figures for the Kd in test [5] and in test [6] were 2.29 nM and 11 nM, respectively.

B6: S-2-1 (antibody, V domains shown)
VH: QVQLVQSGAEVKKPGASVKVSCKASGYTFGAYYMHWVRQAPGQGLEWMGWINPNSGFTRYAQKFQGRVTMTRDTSISTAYMELSRLRSDDTAVYYCARGKRSSGWYEGYGMDVWGQGTTVTVSS
VL: DIQMTQSPSSLSASVGDRVTITCRASQSISSYLNWYQQKPGKAPKLLIYAASSLQSGVPSRFSGSGSGTDFTLTISSLQPEDFATYYCQQSDVSPITFGGGTKVEIK
notes: IgG
On to B6, for which the Kd stood at 2.65 nM in test [2] and 0.691 nM in test [7].

B7: S-19 (antibody, V domains shown)
VH: QVQLVQSGAEVKKPGSSVKVSCKASGGTFSSYAISWVRQAPGQGLEWMGGIIPIFGTASYAQKFQGRVTITADESTSTAYMELSSLRSEDTAVYYCARESRIPGSGYYYYYGMDVWGQGTTVTVSS
VL: DIQMTQSPSSLSASVGDRVTITCRASQSISSYLNWYQQKPGKAPKLLIYSASSLQSGVPSRFSGSGSGTDFTLTISSLQPEDFATYYCQQTDGKPPTFGGGTKVEIK
notes: IgG
In the case of B7, the MFI amounted to 11700 in test [3] and 28200 in test [4]. Also, the Kd turned out to be 0.733 nM in test [5] and 0.843 nM in test [6].

B8: S-21 (antibody, V domains shown)
VH: QVQLVQSGAEVKKPGSSVKVSCKASGGTFSSYAISWVRQAPGQGLEWMGSIIPIFGTANYAQKFQGRVTITADESTSTAYMELSSLRSEDTAVYYCARERRYDGYYYYYGMDVWGQGTTVTVSS
VL: DIQMTQSPSSLSASVGDRVTITCRASQSISSYLNWYQQKPGKAPKLLIYAASSLQSGVPSRFSGSGSGTDFTLTISSLQPEDFATYYCQQKASLPFTFGGGTKVEIK
notes: IgG
With B8, the MFI in test [3] stood at 9380; in test [4], 22900. The values for the Kd in test [5] and in test [6] were 2.8 nM and 1.87 nM, respectively.

B9: S-2-11 (antibody, V domains shown)
VH: QVQLVQSGAEVKKPGASVKVSCKASGYTFLAYYMHWVRQAPGQGLEWMGWINPSWGSTSYAQKFQGRVTMTRDTSISTAYMELSRLRSDDTAVYYCARGKRSSGWYEGYGMDVWGQGTTVTVSS
VL: DIQMTQSPSSLSASVGDRVTITCRASQSISSYLNWYQQKPGKAPKLLIYAASSLQSGVPSRFSGSGSGTDFTLTISSLQPEDFATYYCQQSDVSPITFGGGTKVEIK
notes: IgG
Regarding B9, the Kd in test [2] was 1.54 nM; in test [7] it was 0.377 nM.

B10: S-2-2 (antibody, V domains shown)
VH: QVQLVQSGAEVKKPGASVKVSCKASGYTFVAYYMHWVRQAPGQGLEWMGWINPNSGATRYAQKFQGRVTMTRDTSISTAYMELSRLRSDDTAVYYCARGKRSSGWYEGYGMDVWGQGTTVTVSS
VL: DIQMTQSPSSLSASVGDRVTITCRASQSISSYLNWYQQKPGKAPKLLIYAASSLQSGVPSRFSGSGSGTDFTLTISSLQPEDFATYYCQQSDVSPITFGGGTKVEIK
notes: IgG
B10: the dissociation constant Kd in test [2] was 2.27 nM.

B11: S-2-2 Fab (Fab, V domains shown)
VH: QVQLVQSGAEVKKPGASVKVSCKASGYTFVAYYMHWVRQAPGQGLEWMGWINPNSGATRYAQKFQGRVTMTRDTSISTAYMELSRLRSDDTAVYYCARGKRSSGWYEGYGMDVWGQGTTVTVSS
VL: DIQMTQSPSSLSASVGDRVTITCRASQSISSYLNWYQQKPGKAPKLLIYAASSLQSGVPSRFSGSGSGTDFTLTISSLQPEDFATYYCQQSDVSPITFGGGTKVEIK
notes: Fab by papain digestion
For the molecule B11, the Kd is 0.79 nM in test [1] and 2.68 nM in test [8].

B12: S-28 (antibody, V domains shown)
VH: EVQLVESGGGLVKPGGSLRLSCAASGFTFSSYSMNWVRQAPGKGLEWVSSISSSSNYIYYADSVKGRFTISRDNAKNSLYLQMNSLRAEDTAVYYCARGGLDRWGSFDIWGQGTMVTVSS
VL: not shown
notes: IgG
For B12, the MFI was found to be 8560 in test [3] and 21600 in test [4]. Also, the Kd is 1.25 nM in test [5] and 0.299 nM in test [6].

B13: S-29 (antibody, V domains shown)
VH: EVQLVESGGGLVKPGGSLRLSCAASGFTFSSYSMNWVRQAPGKGLEWVSSISSSSNYIYYADSVKGRFTISRDNAKNSLYLQMNSLRAEDTAVYYCARGGLDRWGSFDIWGQGTMVTVSS
VL: not shown
notes: IgG
Consider B13, for which the MFI was 9600 in test [3] and 21800 in test [4]. Besides, the values for the Kd in test [5] and in test [6] were 1.37 nM and 0.37 nM, respectively.

B14: S-15-3 (antibody, V domains shown)
VH: QVQLVQSGAEVKKPGASVKVSCKASGYTFTSTYMSWVRQAPGQGLEWMGIINPYGGSTSYAQKFQGRVTMTRDTSTSTVYMELSSLRSEDTAVYYCARDPSGIAAAGPASRYYYGMDVWGQGTTVTVSS
VL: EIVMTQSPATLSVSPGERATLSCRASQSVSSNLAWYQQKPGQAPRLLIYGASTRATGIPARFSGSGSGTEFTLTISSLQSEDFAVYYCQQARLGPWTFGGGTKVEIK
notes: IgG
In the case of B14, the Kd came to 17.9 nM in test [2] and 5.25 nM in test [7].

B15: S-48 (antibody, V domains shown)
VH: QVQLVESGGGVVQPGRSLRLSCAASGFTFSSYGMHWVRQAPGKGLEWVAVISYDGSNKYYADSVKGRFTISRDNSKNTLYLQMNSLRAEDTAVYYCARESGDRATLVYYYYYGMDVWGQGTTVTVSS
VL: EIVMTQSPATLSVSPGERATLSCRASQSVSSNLAWYQQKPGQAPRLLIYSASTRATGIPARFSGSGSGTEFTLTISSLQSEDFAVYYCQQYNSWPITFGGGTKVEIK
notes: IgG
With B15, the MFI amounted to 8140 in test [3] and 11900 in test [4]. Also, the Kd in test [5] was found to be 1.53 nM; in test [6], 4.96 nM.

B16: S-15-6 Fab (Fab, V domains shown)
VH: QVQLVQSGAEVKKPGASVKVSCKASGYTFTSRYMSWVRQAPGQGLEWMGIINPVGGSTSYAQKFQGRVTMTRDTSTSTVYMELSSLRSEDTAVYYCARDPSGIAAAGPASRYYYGMDVWGQGTTVTVSS
VL: EIVMTQSPATLSVSPGERATLSCRASQSVSSNLAWYQQKPGQAPRLLIYGASTRATGIPARFSGSGSGTEFTLTISSLQSEDFAVYYCQQARLGPWTFGGGTKVEIK
notes: Fab by papain digestion
As for B16, the Kd in test [1] was found to be 0.07 nM; in test [8] it was 0.678 nM.

B17: S-15-6 (antibody, V domains shown)
VH: QVQLVQSGAEVKKPGASVKVSCKASGYTFTSRYMSWVRQAPGQGLEWMGIINPVGGSTSYAQKFQGRVTMTRDTSTSTVYMELSSLRSEDTAVYYCARDPSGIAAAGPASRYYYGMDVWGQGTTVTVSS
VL: EIVMTQSPATLSVSPGERATLSCRASQSVSSNLAWYQQKPGQAPRLLIYGASTRATGIPARFSGSGSGTEFTLTISSLQSEDFAVYYCQQARLGPWTFGGGTKVEIK
notes: IgG
Regarding B17, the Kd in test [2] came out at 18.9 nM.

B18: S-18 (antibody, V domains shown)
VH: QVQLVQSGAEVKKPGSSVKVSCKASGGTFSSYAISWVRQAPGQGLEWMGSIIPIFGTANYAQKFQGRVTITADESTSTAYMELSSLRSEDTAVYYCARDKHGRRGYYYYMDVWGKGTTVTVSS
VL: EIVLTQSPATLSLSPGERATLSCRASQSVSSYLAWYQQKPGQAPRLLIYDASNRATGIPARFSGSGSGTDFTLTISSLEPEDFAVYYCQQGANAPPRTFGGGTKVEIK
notes: IgG
As to B18, the MFI in test [3] came out at 9350; in test [4], 21700. The Kd in test [5] was found to be 2.3 nM; in test [6] it was 0.475 nM.
